The text below walks through data of patent US20080207488.

The target in series [1] is LAM12.
The target of series [2] is TTR11.
Series [3] addresses T1, freshly dissolved FP13 K157G.
T1 chain: KRLEVDIDIGIRS

The target in series [4] is glycated human haemoglobin (Hb-AGE), P69905.
Series [5] deals with human amyloid-β (Aβ) (1-40) Dutch type.
Series [6] addresses T2, human fibrin α-chain (148-160) amyloid fragment with Lys157Gly mutation (FP13), aggregated.
T2 chain: KRLEVDIDIGIRS

Series [7] concerns the target mIAPP.
The target in series [8] is native haemoglobin (Hb), P69905.
native haemoglobin (Hb), P69905, sequence (P69905 2-142, chain 1 of 2): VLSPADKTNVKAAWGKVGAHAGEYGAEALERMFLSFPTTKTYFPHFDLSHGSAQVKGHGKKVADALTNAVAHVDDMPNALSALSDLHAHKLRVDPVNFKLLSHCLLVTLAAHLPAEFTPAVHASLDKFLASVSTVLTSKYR
native haemoglobin (Hb), P69905, sequence (chain, as listed by the source, chain 2 of 2): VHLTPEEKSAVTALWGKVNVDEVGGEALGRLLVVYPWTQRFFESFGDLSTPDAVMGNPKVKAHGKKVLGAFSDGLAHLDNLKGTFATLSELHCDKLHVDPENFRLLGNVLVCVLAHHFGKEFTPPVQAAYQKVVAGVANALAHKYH
For series [9], the target named is T3, non-amyloid fragment FP10 of human fibrin α-chain (148-157).
T3 chain: KRLEVDIDIK

Series [10] deals with T4, recombinant human β2-glycoprotein I, P02749.
T4 chain: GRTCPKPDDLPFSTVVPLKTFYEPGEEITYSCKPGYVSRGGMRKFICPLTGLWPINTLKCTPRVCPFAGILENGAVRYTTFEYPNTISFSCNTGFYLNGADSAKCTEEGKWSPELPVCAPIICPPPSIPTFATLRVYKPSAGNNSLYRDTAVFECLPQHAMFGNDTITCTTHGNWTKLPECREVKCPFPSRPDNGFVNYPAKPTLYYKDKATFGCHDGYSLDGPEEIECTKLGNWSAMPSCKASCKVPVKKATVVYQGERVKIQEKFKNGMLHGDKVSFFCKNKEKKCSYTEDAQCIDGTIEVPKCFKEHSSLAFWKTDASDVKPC

The target of series [11] is T5, β2-glycoprotein I purified from fresh human plasma, P02749.
T5 chain: T4 chain

glycated human haemoglobin (Hb-AGE), P69905, sequence (P69905 2-142, chain 1 of 2): as the sequence (P69905 2-142, chain 1 of 2) above
glycated human haemoglobin (Hb-AGE), P69905, sequence (chain, as listed by the source, chain 2 of 2): as the sequence (chain, as listed by the source, chain 2 of 2) above

B1: factor XII purified from human plasma (protein)
chain: IPPWEAPKEHKYKAEEHTVVLTVTGEPCHFPFQYHRQLYHKCTHKGRPGPQPWCATTPNFDQDQRWGYCLEPKKVKDHCSKHSPCQKGGTCVNMPSGPHCLCPQHLTGNHCQKEKCFEPQLLRFFHKNEIWYRTEQAAVARCQCKGPDAHCQRLASQACRTNPCLHGGRCLEVEGHRLCHCPVGYTGAFCDVDTKASCYDGRGLSYRGLARTTLSGAPCQPWASEATYRNVTAEQARNWGLGGHAFCRNPDNDIRPWCFVLNRDRLSWEYCDLAQCQTPTQAAPPTPVSPRLHVPLMPAQPAPPKPQPTTRTPPQSQTPGALPAKREQPPSLTRNGPLSCGQRLRKSLSSMTRVVGGLVALRGAHPYIAALYWGHSFCAGSLIAPCWVLTAAHCLQDRPAPEDLTVVLGQERRNHSCEPCQTLAVRSYRLHEAFSPVSYQHDLALLRLQEDADGSCALLSPYVQPVCLPSGAARPSETTLCQVAGWGHQFEGAEEYASFLQEAQVPFLSLERCSAPDVHGSSILPGMLCAGFLEGGTDACQGDSGGPLVCEDQAAERRLTLQGIISWGSGCGDRNKPGVYTDVAYYLAWIREHTVS
Take B1: the “activation of factor XII (conversion of Chromozym PK by kallikrein)” value in series [1] was “LAM12 and TTR11 stimulate factor XII activation, to a similar extent as kaolin”; in series [2], “LAM12 and TTR11 stimulate factor XII activation, to a similar extent as kaolin”; in [5] it was “amyloid-like peptide aggregates of FP13 and Aβ stimulate the activation of factor XII”; in [6] it was “amyloid-like peptide aggregates of FP13 and Aβ stimulate the activation of factor XII”; in series [7], “non-amyloid controls FP10 and mIAPP do not activate factor XII”; in series [9] it was “non-amyloid controls FP10 and mIAPP do not activate factor XII”. Also, the “factor XII auto-activation (substrate S-2222)” value in series [3] is reported as “did not or hardly auto-activate factor XII (not shown)”; in series [4], “All three amyloid-like aggregates are able to induce factor XII auto-activation”; in series [5], “All three amyloid-like aggregates are able to induce factor XII auto-activation; the potency of the Aβ(1-40) E22Q was somewhat lower”; in series [6] it was “All three amyloid-like aggregates are able to induce factor XII auto-activation”; in series [8] it was “did not or hardly auto-activate factor XII (not shown)”.

B2: tissue-type plasminogen activator (tPA) (protein)
chain: SYQVICRDEKTQMIYQQHQSWLRPVLRSNRVEYCWCNSGRAQCHSVPVKSCSEPRCFNGGTCQQALYFSDFVCQCPEGFAGKCCEIDTRATCYEDQGISYRGTWSTAESGAECTNWNSSALAQKPYSGRRPDAIRLGLGNHNYCRNPDRDSKPWCYVFKAGKYSSEFCSTPACSEGNSDCYFGNGSAYRGTHSLTESGASCLPWNSMILIGKVYTAQNPSAQALGLGKHNYCRNPDGDAKPWCHVLKNRRLTWEYCDVPSCSTCGLRQYSQPQFRIKGGLFADIASHPWQAAIFAKHRRSPGERFLCGGILISSCWILSAAHCFQERFPPHHLTVILGRTYRVVPGEEEQKFEVEKYIVHKEFDDDTYDNDIALLQLKSDSSRCAQESSVVRTVCLPPADLQLPDWTECELSGYGKHEALSPFYSERLKEAHVRLYPSSRCTSQHLLNRTVTDNMLCAGDTRSGGPQANLHDACQGDSGGPLVCLNDGRMTLVGIISWGLGCGQKDVPGVYTKVTNYLDWIRDNMRP
As for B2, the “tPA-mediated conversion of Plg to Pls (substrate S-2251)” value in series [10] is “Recombinant β2GPI, but not β2GPI purified from fresh plasma stimulate tPA-mediated conversion of Plg to Pls”; in [11] it was “but not β2GPI purified from fresh plasma”.
